From publication PMC6258710, “Architecture and subunit arrangement of the complete Saccharomyces cerevisiae COMPASS complex” (Scientific Reports, 2018)

B1: Cps50/Swd1 (natural protein, S. cerevisiae, UniProt P39706 1-426, looked up)
chain: MNILLQDPFAVLKEHPEKLTHTIENPLRTECLQFSPCGDYLALGCANGALVIYDMDTFRPICVPGNMLGAHVRPITSIAWSPDGRLLLTSSRDWSIKLWDLSKPSKPLKEIRFDSPIWGCQWLDAKRRLCVATIFEESDAYVIDFSNDPVASLLSKSDEKQLSSTPDHGYVLVCTVHTKHPNIIIVGTSKGWLDFYKFHSLYQTECIHSLKITSSNIKHLIVSQNGERLAINCSDRTIRQYEISIDDENSAVELTLEHKYQDVINKLQWNCILFSNNTAEYLVASTHGSSAHELYIWETTSGTLVRVLEGAEEELIDINWDFYSMSIVSNGFESGNVYVWSVVIPPKWSALAPDFEEVEENVDYLEKEDEFDEVDEAEQQQGLEQEEEIAIDLRTREQYDVRGNNLLVERFTIPTDYTRIIKMQSS
notes: Cps50/Swd1, WD40 repeat subunit of COMPASS, S. cerevisiae, full length; source: S. cerevisiae (strain yCOS2), overexpressed from the GAL1-10 promoter; in lysate for the TAP purification; then co-purified with TAP-Set1 as the COMPASS complex
B2: Cps60/Bre2 (natural protein, S. cerevisiae, UniProt P43132 1-505, looked up)
chain: MKLGIIPYQEGTDIVYKNALQGQQEGKRPNLPQMEATHQIKSSVQGTSYEFVRTEDIPLNRRHFVYRPCSANPFFTILGYGCTEYPFDHSGMSVMDRSEGLSISRDGNDLVSVPDQYGWRTARSDVCIKEGMTYWEVEVIRGGNKKFADGVNNKENADDSVDEVQSGIYEKMHKQVNDTPHLRFGVCRREASLEAPVGFDVYGYGIRDISLESIHEGKLNCVLENGSPLKEGDKIGFLLSLPSIHTQIKQAKEFTKRRIFALNSHMDTMNEPWREDAENGPSRKKLKQETTNKEFQRALLEDIEYNDVVRDQIAIRYKNQLFFEATDYVKTTKPEYYSSDKRERQDYYQLEDSYLAIFQNGKYLGKAFENLKPLLPPFSELQYNEKFYLGYWQHGEARDESNDKNTTSAKKKKQQQKKKKGLILRNKYVNNNKLGYYPTISCFNGGTARIISEEDKLEYLDQIRSAYCVDGNSKVNTLDTLYKEQIAEDIVWDIIDELEQIALQQ
notes: Cps60/Bre2, subunit of COMPASS, S. cerevisiae, full length; source: S. cerevisiae (strain yCOS2), overexpressed from the GAL1-10 promoter; in lysate for the TAP purification; then co-purified with TAP-Set1 as the COMPASS complex

Columns and labels:
Set1 [1] = target: T1, Set1 (S. cerevisiae, UniProt P38827 1-1080); assay: cross-linking; purified COMPASS from the glycerol gradient cross-linked with 1 mM disuccinimidyl suberate (DSS), on ice 2 h; trypsin digest, LC-MS/MS, pLink and xlinkx (XL-MS); details: both partners purified
T1 construct: Set1, histone H3K4 methyltransferase subunit of COMPASS, S. cerevisiae, full length; also called TAP-Set1; TAP-SET1; source: S. cerevisiae (strain yCOS2), overexpressed from the GAL1-10 promoter with the six Cps subunits; in lysate for the TAP purification; then purified as the COMPASS complex (IgG-Sepharose, TEV, calmodulin-Sepharose, glycerol gradient or GraFix); not shown: TAP, N-terminal, kept
T1 sequence (looked up): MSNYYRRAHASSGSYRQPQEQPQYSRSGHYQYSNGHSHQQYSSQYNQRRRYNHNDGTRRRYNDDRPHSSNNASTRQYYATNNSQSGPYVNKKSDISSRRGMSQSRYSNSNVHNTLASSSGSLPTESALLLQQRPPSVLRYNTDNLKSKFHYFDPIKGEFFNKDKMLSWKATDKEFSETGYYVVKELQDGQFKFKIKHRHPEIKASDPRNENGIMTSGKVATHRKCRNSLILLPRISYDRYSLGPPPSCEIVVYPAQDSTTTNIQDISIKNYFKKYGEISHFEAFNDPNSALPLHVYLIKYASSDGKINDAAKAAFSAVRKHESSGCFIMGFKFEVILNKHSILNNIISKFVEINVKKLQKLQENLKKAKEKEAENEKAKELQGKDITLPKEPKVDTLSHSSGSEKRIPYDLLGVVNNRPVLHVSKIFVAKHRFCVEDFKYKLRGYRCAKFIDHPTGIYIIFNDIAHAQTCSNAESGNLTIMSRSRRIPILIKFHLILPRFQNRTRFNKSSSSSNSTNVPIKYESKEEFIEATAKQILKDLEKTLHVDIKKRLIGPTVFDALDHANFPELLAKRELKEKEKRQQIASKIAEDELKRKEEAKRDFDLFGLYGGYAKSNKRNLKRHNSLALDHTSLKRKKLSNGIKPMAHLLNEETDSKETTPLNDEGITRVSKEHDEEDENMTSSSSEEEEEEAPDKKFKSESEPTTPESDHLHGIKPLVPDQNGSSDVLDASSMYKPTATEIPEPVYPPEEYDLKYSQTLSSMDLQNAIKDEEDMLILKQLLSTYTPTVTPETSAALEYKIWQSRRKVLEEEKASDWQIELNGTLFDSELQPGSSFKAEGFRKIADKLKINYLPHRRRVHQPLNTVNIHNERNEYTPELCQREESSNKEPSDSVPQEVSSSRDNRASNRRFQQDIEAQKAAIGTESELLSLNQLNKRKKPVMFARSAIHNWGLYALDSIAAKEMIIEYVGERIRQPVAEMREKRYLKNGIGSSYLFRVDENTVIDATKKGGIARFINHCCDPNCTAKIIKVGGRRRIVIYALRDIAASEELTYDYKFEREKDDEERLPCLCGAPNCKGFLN

Set1 [2] = target: T1, Set1; assay: cryo-EM structure; complete COMPASS after GraFix (glutaraldehyde), map at 10.0 Å; subunits placed by DID, PA-NZ-1 Fab and eGFP labelling and by docking of homology models; details: both partners purified
Cps50/Swd1 = target: B1; assay: as above; details: both partners purified
Cps60/Bre2 = target: B2; assay: cross-linking; purified COMPASS from the glycerol gradient cross-linked with 1 mM disuccinimidyl suberate (DSS), on ice 2 h; trypsin digest, LC-MS/MS, pLink and xlinkx (XL-MS); details: both partners purified
Set1 [3] = target: T1, Set1; assay: tandem affinity purification (TAP), SDS-PAGE; yeast lysate; TAP-Set1 held on IgG-Sepharose, washed with 350 mM NaCl, TEV elution, calmodulin-Sepharose, EGTA elution, then glycerol gradient centrifugation; subunits seen by SDS-PAGE; details: partners not purified

Binder	binding result (Set1 [1])	binding result (Set1 [2])	other results
Cps35/Swd2 (natural protein, S. cerevisiae, UniProt P36104 1-329, looked up, Cps35/Swd2, WD40 repeat subunit of COMPASS, S. cerevisiae, full length; source: S. cerevisiae (strain yCOS2), overexpressed from the GAL1-10 promoter; in lysate for the TAP purification; then co-purified with TAP-Set1 as the COMPASS complex) MTTVSINKPNLLKFKHVKSFQPQEKDCGPVTSLNFDDNGQFLLTSSSNDTMQLYSATNCKFLDTIASKKYGCHSAIFTHAQNECIYSSTMKNFDIKYLNLETNQYLRYFSGHGALVNDLKMNPVNDTFLSSSYDESVRLWDLKISKPQVIIPSLVPNCIAYDPSGLVFALGNPENFEIGLYNLKKIQEGPFLIIKINDATFSQWNKLEFSNNGKYLLVGSSIGKHLIFDAFTGQQLFELIGTRAFPMREFLDSGSACFTPDGEFVLGTDYDGRIAIWNHSDSISNKVLRPQGFIPCVSHETCPRSIAFNPKYSMFVTADETVDFYVYDE	binds		
Cps30/Swd3 (natural protein, S. cerevisiae, UniProt P38123 1-315, looked up, Cps30/Swd3, WD40 repeat subunit of COMPASS, S. cerevisiae, full length; source: S. cerevisiae (strain yCOS2), overexpressed from the GAL1-10 promoter; in lysate for the TAP purification; then co-purified with TAP-Set1 as the COMPASS complex) MFQFVTPVGTQNGLKATCAKISPDGQFLAITQGLNILIYDINRRTVSQTLVTSHARPFSELCWSPDGQCIATASDDFSVEIIHLSYGLLHTFIGHTAPVISLTFNRKGNLLFTSSMDESIKIWDTLNGSLMKTISAHSEAVVSVDVPMNDSSILSSGSYDGLIRIFDAETGHCLKTLTYDKDWKRENGVVPISQVKFSENARYLLVKSLDGVVKIWDCIGGCVVRTFQVQPLEKGVLHHSCGMDFLNPEDGSTPLVISGYENGDIYCWNSDTKSLLQLLDGSLYHHSSPVMSIHCFGNIMCSLALNGDCCLWRWV		binds	binding result (Cps50/Swd1): binds
Cps40/Spp1 (natural protein, S. cerevisiae, UniProt Q03012 1-353, looked up, Cps40/Spp1, subunit of COMPASS, S. cerevisiae, full length; source: S. cerevisiae (strain yCOS2), overexpressed from the GAL1-10 promoter; in lysate for the TAP purification; then co-purified with TAP-Set1 as the COMPASS complex) MSLPQWCPPHSTLKRNPTTGEDVYCICKRPDYGELMVGCDGCDDWFHFTCLHIPEQFKDLVFSFYCPYCQAGITGKNKDAIINGEGSLPKTLWKRKCRISDCYKPCLQDSKYCSEEHGREFVNDIWSRLKTDEDRAVVKKMVEQTGHIDKFKKFGQLDFIDNNIVVKTDDEKEIFDQIVVRDMTLKTLEDDLQEVQEISLPLFKKKLELLEVYLGWLDNVYTEMRKLDDDAASHVECGKEDSKGTKRKKKKNSSRSRARKNICGYCSTYERIPCSVEEFVRDFGSNEEATKIHEVCTKWKCNRHLDWVSTNQEQYLQQIDSLESMQERLQHLIQARKKQLNIQYYEEILRRGL	binds		
B1		binds	
Cps25/Sdc1 (natural protein, S. cerevisiae, UniProt Q03323 1-175, looked up, Cps25/Sdc1, subunit of COMPASS, S. cerevisiae, full length; source: S. cerevisiae (strain yCOS2), overexpressed from the GAL1-10 promoter; in lysate for the TAP purification; then co-purified with TAP-Set1 as the COMPASS complex) MNESENSPQHNEVTVPMVEDTSSNADIPMEQIQREDNKNYDKHDNECFDMNGNHNNNSDNLQFDSVPSSATKDLKNIKSVTNQNVKIEESSSTNSVIEESSEPKISKLENVNLAATVGGSQTRKYLNTNVTPHLLAGMRLIAVQQPEDPLRVLGEYLIEQSNILKSGEKESNASK	binds		binding result (Cps60/Bre2): binds
B2			binding result (Set1 [3]): binds
